Source: PMC3331935 (Developmental Cell, 2012)

Columns and labels:
Assay in all cases: alkaline phosphatase fusion protein binding assay
[1] = biological target: Notch1, transfected into HEK293 cells and immunoprecipitated on protein G beads (UniProt Q07008 19-2531)
[2] = biological target: Notch2 (UniProt O35516 26-2473)
[3] = biological target: Notch3 (UniProt Q61982 40-2318)
[4] = biological target: Notch4 (UniProt P31695 21-1964)
Notch4, sequence (P31695 21-1964): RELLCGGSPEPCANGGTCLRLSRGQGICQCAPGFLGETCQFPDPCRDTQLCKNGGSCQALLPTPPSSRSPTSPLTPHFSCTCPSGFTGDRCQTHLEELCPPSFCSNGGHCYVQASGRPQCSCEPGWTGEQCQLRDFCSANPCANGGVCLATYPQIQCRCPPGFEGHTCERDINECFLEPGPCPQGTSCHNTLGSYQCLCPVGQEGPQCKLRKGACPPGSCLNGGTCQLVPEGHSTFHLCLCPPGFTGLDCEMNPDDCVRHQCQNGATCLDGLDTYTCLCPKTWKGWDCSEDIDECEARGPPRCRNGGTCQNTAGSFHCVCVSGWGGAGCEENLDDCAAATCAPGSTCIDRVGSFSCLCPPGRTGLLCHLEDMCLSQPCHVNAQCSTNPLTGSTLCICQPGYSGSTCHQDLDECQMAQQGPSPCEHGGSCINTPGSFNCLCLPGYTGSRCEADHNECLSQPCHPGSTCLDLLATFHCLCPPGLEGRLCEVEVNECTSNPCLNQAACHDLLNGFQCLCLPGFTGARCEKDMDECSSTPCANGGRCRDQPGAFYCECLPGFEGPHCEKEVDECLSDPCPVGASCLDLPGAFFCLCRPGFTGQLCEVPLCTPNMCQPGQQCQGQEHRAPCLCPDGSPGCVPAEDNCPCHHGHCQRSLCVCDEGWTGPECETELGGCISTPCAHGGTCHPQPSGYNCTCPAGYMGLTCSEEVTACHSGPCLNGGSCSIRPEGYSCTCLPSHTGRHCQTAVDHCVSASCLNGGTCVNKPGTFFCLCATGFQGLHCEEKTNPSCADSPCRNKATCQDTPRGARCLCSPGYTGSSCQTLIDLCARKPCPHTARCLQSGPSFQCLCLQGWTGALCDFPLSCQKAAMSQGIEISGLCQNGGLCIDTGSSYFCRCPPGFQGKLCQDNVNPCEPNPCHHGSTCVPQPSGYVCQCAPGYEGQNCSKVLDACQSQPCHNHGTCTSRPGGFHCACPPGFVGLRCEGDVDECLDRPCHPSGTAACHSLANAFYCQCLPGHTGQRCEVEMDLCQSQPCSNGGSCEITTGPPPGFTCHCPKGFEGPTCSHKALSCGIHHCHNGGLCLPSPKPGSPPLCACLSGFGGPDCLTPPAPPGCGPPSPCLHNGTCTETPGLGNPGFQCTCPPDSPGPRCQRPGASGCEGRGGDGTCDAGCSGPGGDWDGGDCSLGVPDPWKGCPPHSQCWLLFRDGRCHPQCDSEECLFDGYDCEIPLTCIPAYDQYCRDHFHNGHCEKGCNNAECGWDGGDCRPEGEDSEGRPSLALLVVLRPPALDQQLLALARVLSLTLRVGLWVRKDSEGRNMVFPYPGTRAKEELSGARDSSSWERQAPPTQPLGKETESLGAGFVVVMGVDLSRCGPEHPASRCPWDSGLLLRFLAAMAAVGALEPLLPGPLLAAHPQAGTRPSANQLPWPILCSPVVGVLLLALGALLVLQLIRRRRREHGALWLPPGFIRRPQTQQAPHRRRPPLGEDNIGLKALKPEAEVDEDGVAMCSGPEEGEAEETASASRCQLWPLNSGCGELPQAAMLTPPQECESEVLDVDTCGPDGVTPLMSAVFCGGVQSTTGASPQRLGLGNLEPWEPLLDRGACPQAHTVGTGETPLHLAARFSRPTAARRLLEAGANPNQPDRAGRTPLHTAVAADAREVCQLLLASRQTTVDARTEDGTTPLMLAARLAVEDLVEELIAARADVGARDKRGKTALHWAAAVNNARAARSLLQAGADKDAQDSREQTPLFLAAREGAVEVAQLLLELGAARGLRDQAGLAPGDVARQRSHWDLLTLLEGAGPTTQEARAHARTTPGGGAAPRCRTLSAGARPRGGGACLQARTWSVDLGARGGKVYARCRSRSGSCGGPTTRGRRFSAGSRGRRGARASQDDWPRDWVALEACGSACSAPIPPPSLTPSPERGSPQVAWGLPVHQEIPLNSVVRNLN

Notch2, sequence (O35516 26-2473): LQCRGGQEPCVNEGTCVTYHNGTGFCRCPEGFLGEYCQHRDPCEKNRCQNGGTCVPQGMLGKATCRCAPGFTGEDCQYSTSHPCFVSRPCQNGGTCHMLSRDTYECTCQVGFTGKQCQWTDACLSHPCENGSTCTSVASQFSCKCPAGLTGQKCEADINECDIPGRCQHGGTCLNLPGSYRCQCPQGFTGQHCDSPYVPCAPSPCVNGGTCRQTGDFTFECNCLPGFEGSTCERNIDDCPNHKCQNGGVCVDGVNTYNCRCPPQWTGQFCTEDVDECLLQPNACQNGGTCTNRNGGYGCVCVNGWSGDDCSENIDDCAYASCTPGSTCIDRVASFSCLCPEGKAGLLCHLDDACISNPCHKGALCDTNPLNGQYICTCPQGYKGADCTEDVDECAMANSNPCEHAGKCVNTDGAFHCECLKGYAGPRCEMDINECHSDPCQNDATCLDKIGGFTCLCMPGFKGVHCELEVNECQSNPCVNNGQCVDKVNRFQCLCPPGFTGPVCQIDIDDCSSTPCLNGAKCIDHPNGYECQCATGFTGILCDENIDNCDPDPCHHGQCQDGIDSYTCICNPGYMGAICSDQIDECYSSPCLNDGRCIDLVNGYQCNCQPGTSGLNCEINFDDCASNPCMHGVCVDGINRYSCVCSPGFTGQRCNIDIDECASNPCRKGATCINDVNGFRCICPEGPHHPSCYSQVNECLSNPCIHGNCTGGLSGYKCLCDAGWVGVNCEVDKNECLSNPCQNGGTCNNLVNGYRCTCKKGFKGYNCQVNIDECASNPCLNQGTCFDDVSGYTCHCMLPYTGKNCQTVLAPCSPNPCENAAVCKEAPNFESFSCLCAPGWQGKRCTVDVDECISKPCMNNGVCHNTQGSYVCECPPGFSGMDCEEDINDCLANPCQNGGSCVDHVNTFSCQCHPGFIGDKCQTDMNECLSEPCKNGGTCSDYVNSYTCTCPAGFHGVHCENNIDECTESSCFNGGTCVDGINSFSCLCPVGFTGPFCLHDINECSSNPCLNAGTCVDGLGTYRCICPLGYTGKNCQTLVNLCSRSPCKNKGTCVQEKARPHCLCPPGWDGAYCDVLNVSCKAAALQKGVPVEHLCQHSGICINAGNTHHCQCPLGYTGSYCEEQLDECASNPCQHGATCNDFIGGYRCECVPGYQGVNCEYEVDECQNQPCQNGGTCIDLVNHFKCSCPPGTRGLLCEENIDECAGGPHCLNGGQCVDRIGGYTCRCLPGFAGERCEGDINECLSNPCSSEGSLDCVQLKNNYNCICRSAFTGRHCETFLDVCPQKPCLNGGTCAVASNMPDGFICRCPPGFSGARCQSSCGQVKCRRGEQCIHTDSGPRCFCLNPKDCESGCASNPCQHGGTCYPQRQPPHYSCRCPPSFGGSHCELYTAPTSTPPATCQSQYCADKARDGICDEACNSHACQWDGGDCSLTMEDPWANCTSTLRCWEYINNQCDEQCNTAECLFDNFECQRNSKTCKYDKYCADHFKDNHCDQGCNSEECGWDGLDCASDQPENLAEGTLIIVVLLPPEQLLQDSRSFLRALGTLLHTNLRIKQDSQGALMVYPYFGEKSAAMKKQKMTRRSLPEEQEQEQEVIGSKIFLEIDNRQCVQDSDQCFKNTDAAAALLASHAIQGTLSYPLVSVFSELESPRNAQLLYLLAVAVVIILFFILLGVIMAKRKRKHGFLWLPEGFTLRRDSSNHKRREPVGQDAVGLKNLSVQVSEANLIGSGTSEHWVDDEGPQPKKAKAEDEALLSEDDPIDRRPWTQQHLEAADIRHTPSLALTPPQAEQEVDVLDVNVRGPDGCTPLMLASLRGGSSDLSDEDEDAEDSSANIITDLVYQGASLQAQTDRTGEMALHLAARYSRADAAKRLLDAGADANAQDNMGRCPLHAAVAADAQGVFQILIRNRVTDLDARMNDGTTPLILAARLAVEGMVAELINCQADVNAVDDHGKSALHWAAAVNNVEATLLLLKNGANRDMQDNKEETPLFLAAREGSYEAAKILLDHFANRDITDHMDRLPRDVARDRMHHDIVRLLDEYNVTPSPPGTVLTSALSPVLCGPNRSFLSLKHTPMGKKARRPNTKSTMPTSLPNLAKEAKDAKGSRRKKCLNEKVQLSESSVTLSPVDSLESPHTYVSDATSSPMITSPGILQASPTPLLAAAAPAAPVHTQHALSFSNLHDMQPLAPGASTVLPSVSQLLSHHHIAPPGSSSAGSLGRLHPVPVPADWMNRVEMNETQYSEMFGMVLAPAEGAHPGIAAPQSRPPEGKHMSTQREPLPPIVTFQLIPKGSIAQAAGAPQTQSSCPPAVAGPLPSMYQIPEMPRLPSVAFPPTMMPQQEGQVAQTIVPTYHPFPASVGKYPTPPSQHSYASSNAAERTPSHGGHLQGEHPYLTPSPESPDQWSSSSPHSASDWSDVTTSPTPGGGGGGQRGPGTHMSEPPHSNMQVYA

Kd [1]: 3.3 nM
Kd [2]: 8.8 nM
Kd [3]: 3.3 nM
Kd [4]: 6.3 nM
B1: alkaline phosphatase tagged Botch (Botch-N-AP) (natural protein, UniProt Q8R3J5 1-223, looked up)
chain: MKQESASQSTPPPSLSPAPSSAQPSWGDGDPQALWIFGYGSLVWKPDFAYSDSRVGFVRGYSRRFWQGDTFHRGSDKMPGRVVTLLEDREGCTWGVAYQVRGEQVNEALKYLNVREAVLGGYDTKEVTFYPQDTPDQPLTALAYVATPQNPGYLGPAPEEVIATQILACRGFSGHNLEYLLRLADFMQLCGPQAQDEHLEAIVDAVGTLLPCSYLPEQPLALT
